# Assay: soluble on expression in E. coli; label from the status in PepcDB or PDB records
row,Sequence,soluble on expression in E. coli
1,MIEEPVDDVIKHGPKTGTPETKTVEIPFETKREFNPKLQPGEERVKQEGQPGSKTITTPITVNPLTGEKVGEGQPTEEITKQPVDKIVEFGGEKPKDPKGPENPEKPSRPTHPSGPVNPNNPGLSKDRAKPNGPVHSMDKNDKVKKSKIAKESVANQEKKRAELPKTGLESTQKGLIFSSIIGIAGLMLLARRRKN,not soluble
2,RLHRLPRDCQELFQVGERQSGLFEIQPQGSPPFLVNCKMTSDGGWTVIQRRHDGSVDFNRPWEAYKAGFGDPHGEFWLGLEKVHSITGDRNSRLAVQLRDWDGNAELLQFSVHLGGEDTAYSLQLTAPVAGQLGATTVPPSGLSVPFSTWDQDHDLRRDKNCAKSLSGGWWFGTCSHSNLNGQYFRSIPQQRQKLKKGIFWKTWRGRYYPLQATTMLIQPMAAEAAS,soluble
3,MGSDKIHHHHHHMENGEMIKVLLANPRGFCAGVDRAIEIVERALSVHGAPIYVRHEVVHNRFVVEDLEKKGAVFVENLDEVPAGSILIFSAHGVSHAVRREAEAGQFKVFDATCPLVTKVHIEVAKMRDQGREIIMIGHAGHPEVEGTMGQAEGDGPSMYLVETEEDVEKLQVQDPAHLAYVTQTTLSVDDANRVIQALKGRFPNILGPKKDDICYATQNRQDAVKTMVKQCDLVIVVGSPNSSNSNRLCEVARNAGVDAYMLDRAEQLQEAWLKGKMRIGITAGASAPEVLVQEVISRLRQIVSEQAEREVVVEELRGVVESVVFPLPRN,not soluble
4,MMRPDAKVEKVYLYPKPVDFRKSIDGLAALVELDIKVAVFDPVLFVFLNRHRNRVKILYWERNGFCLWLKRLESERFKTSPDETDEAIVLTVQELNWLLDGFDLWRNRPHKVLTPRFVA,not soluble
5,MSRFIPIELHHASRLLNHGPTVLITSFDEQSQRRNIMAAAWSMPVEFEPPRVAIVVDKSTWTRELIEHNGKFGIVIPGVAATNWTWAVGSVSGRDEDKFNCYGIPVVRGPVFGLPLVEEKCLAWMECRLLPATSAQEEYDTLFGEVVSAAADARVFVEGRWQFDDDKLNTLHHLGAGTFVTSGKRVTAG,soluble
6,SNAGMTGFVINTRRAPFDDWRLREALLLAFNFEFINDTVTGGVMPRITSYFSGTDLAYRPGTASGREAELLAPFAADLPPGTLEGYALPQGDGTARNRTNLRRAAQFLEQAGFRIEQGQLLGPDGAPLALRFLLRQGDSDMQTVLEIYTRALERLGIAAQIEKVDNAQYTARVAELDFDLTPFRRDLSLSPGNEQRLYWGSHSAGQPGTRNLMGAASPAIDAMIDRMLAATTEDELTAATRALDRVLTAGRYVIPIWR,soluble
7,MRAVLGGEDDGGVGLRVIDNNEVSHGISVNFDGEITYHEQDGYPDDPSERTRAGNIHVNQARRFAKYWVYRKRGYDTIPPTENPDRIIAAAIALTPLEPETAETHLGDFYQHFQSINGTADSPVEMPEGVPEQGGGTVYQKDIYVGLEDETLGTIAADLLADPKLMELVGKSVGVGGESLVGAEYVPTFKELIAEASDRDSDSLPSLSEGLLLEATSGIHVHWDDPPGEYHTQWGDQPDLGRDPAARIEIFPFEPDSITELQAQVARHLLCQIRDCYLTMGIAPPEQFRILGHGRHEATGLYASYDIYDEYFDPNAEIDTWYVENTPEGAYEHEPANKNVQTKA,not soluble
8,MGIRELNLTKEQHEWLNGWLELWAHGLSGRLEKRMSSVIAKFMESIEPGRVMTRPMCNDDDGMLISQVVDSVMYIDKKAFGILLSYYAHGSSKHAIASYYHRVARPRKMLCRGGGRIQKPSLATCRREVDEILNASLFMIYPVLDSAFKNRKRVEKIKHVALEHHHHHH,soluble
9,MSIAQQLMDMGFPADKAEAAAGNNRNLDQALDWIEKDGAGVPMETDAPAQAAPGAADSGAPPVAASFKCDDCGKLLANDDAIMFHASKTKHENFSESSEAIKPLTAEEKAAKVLEIREKIKVHQAKKAKLEAEENREKEKKRREDGKAMISHKEAARDREIREAAQDRRREKNEDEIARKRVLEQIRLDKEARKAKASGQPVPEAKPAPSAAPVAPPKDYSTTTLQFRLLDGQTVRQQFEANEPLAMVRAWVETNHANGVPFTLMTPFPRKVFTEDDMGTPLKVLNLVPSANVILNRAA,not soluble
10,MFFDDTYLDYKARVSYSLFCAKDFNETAAFIKANRILMTSTELAAYMLKPENYKYAIIARIKNSMVGIVLFTDFESEVFINHLYVSPIHRFKGIGSNLLKELKAFMGQRTVSYIDTSNNYMPWMEVLDVSKKAAVINQLGSFYKCSK,not soluble
11,LHRIVDKMHDTSTGIRPSPNMEQGSTYKKTFLGSSLVDWLISSNFAASRLEAVTLASMLMEENFLRPVGVRSMGAIRSGDLAEQFLDDSTALYTFAESYKKKVSSKE,soluble
12,MSLINLDVWIDLTNAPHVHYFCQLIKKFEKEGIEYLLTFRDSGNLAKLVEIYNFVGKCIGKHGNTLKDKLIFYAERVIGLTELISNVKPKVAIAKHSVELPRVAFGLNIPVIFVVDNEHAEAQNKLTLPLADEIIKPIATDENKLKEFGGRNFISFEGTCEVANVNSRLKGYYPIDNEILKKLGICDDNPTIVMRPCPNSSYCNGHKDILPKIIEKLQKRIDCNIVVFPRDEHQKEIYREVNAIVPKETIDALSLLYNSDFMIGAGGTMNRESAILGIPTVSCYPQELLGVDKYLIEKDRMIHTNDIKEIINYVEDNLGKRMGVIELEDPTDLMFERVCNYLKEGHHHHHH,soluble
13,MKEKISKKEYNALIRKTGEKHFDGEKEEYGDGTVGLWTYELRKYKLKPPVKVKYVTQEEFGEFKDATNQRLTKIENALVAQGEQIRAQGEQLSQLIKVVLLQGEQIKSQGEQIKSLEHHHHHH,not soluble
14,MGSDKIHHHHHHKKAVINDSNTPLHLLQPAYQGTYGDLTPEQVKKDIDRVFAYIDKETPARVVDKNTGKVITDYTAMGDEAQLERGAFRLASYEWGVTYSALIAAAETTGDKRYTDYVQNRFRFLAEVAPHFKRVYEEKGKTDSQLLQILTPHALDDAGAVCTAMIKLRLKDESLPVDGLIQNYFDFIINKEYRLADGTFARNRPQRNTLWLDDMFMGIPAVAQMSRYDKEAKNKYLAEAVKQFLQFADRMFIPEKGLYRHGWVESSTDHPAFCWARANGWALLTACELLDVLPEDYPQRPKVMDYFRAHVRGVTALQSGEGFWHQLLDCNDSYLETSATAIYVYCLAHAINKGWIDAIAYGPVAQLGWHAVAGKINEEGQVEGTCVGTGMAFDPAFYYYRPVNVYAAHGYGPVLWAGAEMIRLLNTQHPQMNDSAVQYYQEKQKTTAPIFAVDSE,not soluble
15,MGHHHHHHSHMSPDQFLLTVSALQHARNSGEFAYPCRPQTEITDVWGPSISYPRKVLNFKGKSIQRAVDRLRLSNPPIDVKRTSIPLEIQKLQPNLKISLHSPRAQSTIPEPMIIRSRFSGSLKGGDQVTSSIERAVCSTGPLTSMQVIKPNRMLAPQVGTATLSLKKERPRIYTALDPFRVNAEFVLLTVKEEKEHQEAKMKEYQARESTGVVDPGKASKAAWIRKIKGLPIDNFTKQGKTAAPELGQNVFI,soluble
16,MMGFEWGFKPSSKITQSTVSSQGTGNVMIPTAGVKQKRRYANEEQEEEELPRNKNVMKYGGVSKRRPQPGSLIRGQPLPLQRGMELMNKNQLQQLLVDLMTKHPEIQQSVHTRVIGLDFSIQKCLDMLKQKSEAVYQSIPYNRSYESNKLDDYAFVRMKPQILEFLNCLVDFILDNIPPRLENLHASLKFLDICTELVIKLPRFELASNNYYYDKCIEQLSHVWCTLIEHVARDRIILLADNSSVWKSHMTRLQVYNEHSNGLLERPLQLFKSLDMGSPSAASSSTLSLQESIIYHHDTMTANENNNNSGSAATDSPFN,soluble
17,MGHHHHHHSHMVTQFKEKNESLQYETSSPTVQLKIPQLRVSSVSKSQPDGSGLLDVMYQVSKTSSVLEGSALQKLKNILPKQNKIECSGPVTHSSVDSYFLHGDLSPLCLNSKNGTVDGTSENTEDGLDRKDSKQPRKKRGRYRQYDHEIMEEAIAMVMSGKMSVSKAQGIYGVPHSTLEYKVKERSGTLKTPPKKKLRLPDTGLYNMTDSGTGSCKNSSKPV,soluble
18,MSLKNQWNNILSIGEKVLNGEKITADEALTLSKSNGSDIFLLCSFANKLREKFNGNHVDLCSVINAKSGNCSEDCAFCAQSAHHKANVSCYPLLNEDKILEMAKQREAYGARHCDIATSGLGYTGDEKDFQTILKAFKKMKENTNLKLCACLGTLTEKAMNSLAAVGVERYNHNLETAKSFYKNIVSTHGYDERIKTINYAKNAKMEVCSGMIVGLGETMEQRIEHALLLRDLNVDAVPVNILNPVKGTKLENAKPLSPMEIIKTFAIIRFILPDKIIRYAGGREKNLRSLQPLGFLSGLNGMLIGNYLTTNGQSVNDDFNMLKDLELEYEGHHHHHH,soluble
19,MSLAPLAPLRAHAGRRLTAGLDDATIERLATDHPTLRQAIEAAGSEYALVQAEVADLLDLDEDAQISAVQDGFINFYADDAVTPYVALAARGPWVITLKGAVLYDAGGYGMLGFGHTPEAVLDAMARPQVMANVMTPSLAQRKLDRALRAEIGHTRGGCPFARFMCLNSGSEAVGLAARIVDTNAKLHTDPGARHAGATIKRLVVKGSFHGRTDRPGLYSDSSRKTYSKYLASYRDEDSVIAIAPYDIAALQRAFDEAARNHWFIEAVFLEPVMGEGDPGRALPAEFYAAARTLTRNHGSLLLVDSIQAGLRAHGVLSVVDYPGFEQLDPPDLETYSKALNAAQYPLSVLAVTEQAAQVYRKGTYGNTMTTNPRALDVACATLALFTPQIRDNIRLRGAQALRKLEALQAELGGLITKVQGTGLLFSCELAPQYKCYGAGSTEEWLRHHGVNVIHGGENSLRFTPHFGMDEAELDLLVGLIAKALKEGPRQAQAEAEGHHHHHH,soluble
20,MAHHHHHHMTSPMLMAAENFCFTPQSHFMVKTPKSERAHQCSKLYNEAFVVSNRTGLRSILRANESGRSYLNGGGIIARVWALEEALKAFFNLRKKKFVWGCDQSMWALLLIWSITRPENIKPALLVRRGLISLDYETRYFLYPSKTMVMSGMILHFAGPVHVWKRTLPQYLSEINWYRALSNSSPKREASIRLLKNSTVEMYTFWGSRKDAKLSTVCPISNISDPSWLSGQLKK,soluble
21,MKIALMMENSQAAKNAMVAGELNSVAGGLGHDVFNVGMTDENDHHLTYIHLGIMASILLNSKAVDFVVTGCGTGQGALMSCNLHPGVVCGYCLEPSDAFLFNQINNGNAISLAFAKGFGWAGELNVRYIFEKAFTGKRGEGYPIERAAPQQANAAILNNVKAAVAKDVVEGLRAIDQELVKTAVGSTQFQECFFAHCQVPEIAEYVKSLLD,soluble
22,MSLITVVIIDDDPFVTKSLQTILESTKEIRVLGIGHCAKDALVLYETHRPDVLLTDIRMPKQTGIDAAKEILAKFPKAILLLLTTFKDEEYIREAFSIGVKGYLIKQNLQAIIPSVKSAYNGQAVFGNEIIETFTQMMKNKPTIDSHAYASFSERELAIIKEVAAGKNNKEIADALYLSDGTVRNYISQLLEKLDLRDRTQLAIYFYQHLQEGHHHHHH,not soluble
23,SEERLNYIVFNQNISNMANKEVRQALSYALNRNEMIESAYGKEGSVPAKSILVPEADFYTEEGVEGYDQDTNKAKDLLDKSGVKIDKLKIGYNTGRFGHKNYALVAQQELKKIGIEAEIVPYESKAFFNILFSNSTECDMYVNGYAWGLEPNPYRGMFETGQYCNQTKYSNAEIDALWEKGFTELNKEKREEIYKQIQQDISKDAPIYTIDYEQNLMAAQKNL,not soluble

# From the DeepSol protein solubility set
